Measured values reported in CN117460529A (dated 2024).

T1: 细胞表面上表达的人ICOS (human, UniProt Q9Y6W8 21-199)
T1 construct: whole, on cells; also called hICOS; human ICOS on CHO-S cells
T1 sequence (looked up): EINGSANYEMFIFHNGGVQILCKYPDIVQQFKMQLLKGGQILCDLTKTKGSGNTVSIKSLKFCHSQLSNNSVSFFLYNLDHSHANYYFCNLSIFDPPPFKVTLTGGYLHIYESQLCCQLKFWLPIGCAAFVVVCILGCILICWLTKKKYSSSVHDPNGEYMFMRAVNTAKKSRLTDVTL

T2: 人ICOS (HTRF测定) (human, UniProt Q9Y6W8 21-140, limits assumed)
T2 construct: the HTRF construct is described only in US 9,957,323; also called human ICOS; ICOS受体
T2 sequence (looked up): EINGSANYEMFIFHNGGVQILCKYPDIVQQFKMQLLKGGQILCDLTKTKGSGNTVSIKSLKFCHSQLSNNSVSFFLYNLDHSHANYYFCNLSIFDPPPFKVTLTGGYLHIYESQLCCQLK

T3: 小鼠ICOS (HTRF测定) (mouse, UniProt Q9WVS0 21-144, limits assumed)
T3 construct: the HTRF construct is described only in US 9,957,323; also called mouse ICOS; mICOS
T3 sequence (looked up): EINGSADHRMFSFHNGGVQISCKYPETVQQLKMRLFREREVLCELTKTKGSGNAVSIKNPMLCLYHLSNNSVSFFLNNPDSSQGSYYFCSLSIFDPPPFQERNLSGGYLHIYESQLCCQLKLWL

T4: CHO-S细胞表面上表达的小鼠ICOS (mouse, UniProt Q9WVS0 21-200)
T4 construct: whole, on cells; also called mICOS; mouse ICOS on CHO-S cells
T4 sequence (looked up): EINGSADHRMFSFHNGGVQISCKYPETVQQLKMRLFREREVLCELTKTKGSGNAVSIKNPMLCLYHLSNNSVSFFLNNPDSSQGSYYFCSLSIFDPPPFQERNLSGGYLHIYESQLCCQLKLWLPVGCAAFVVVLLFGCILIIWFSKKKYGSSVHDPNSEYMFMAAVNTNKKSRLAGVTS

B1: STIM003 (antibody, V domains shown)
VH: EVQLVESGGGVVRPGGSLRLSCVASGVTFDDYGMSWVRQAPGKGLEWVSGINWNGGDTDYSDSVKGRFTISRDNAKNSLYLQMNSLRAEDTALYYCARDFYGSGSYYHVPFDYWGQGILVTVSS
VL: EIVLTQSPGTLSLSPGERATLSCRASQSVSRSYLAWYQQKRGQAPRLLIYGASSRATGIPDRFSGDGSGTDFTLSISRLEPEDFAVYYCHQYDMSPFTFGPGTKVDIKR
notes: also called KY1044; SAR445256
B2: CL-74570 (antibody, V domains shown)
VH: EVQLVESGGGVIRPGGSLRLSCAASGFTFDDYGMSWVRQAPGKGLEWVSGINWIGDNTDYADSVKGRFTISRDNAKNSLYLQMNSLRAEDTALYYCARDYFGSGSYYNVPF
VL: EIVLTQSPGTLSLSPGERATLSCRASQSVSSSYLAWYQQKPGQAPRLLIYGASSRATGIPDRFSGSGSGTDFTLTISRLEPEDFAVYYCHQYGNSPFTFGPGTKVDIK
B3: CL-61091 (antibody, V domains shown)
VH: QVQLMQSGTEVKKPGASVKVSCKTSGYTFTTYGITWVRQAPGQGLEWMGWISAYSGDTDYAQKFQGRVTVTTDTSTNTAYMELRSLKSDDTAVYYCARSSGWPHHYGMDVWGQGTTVTVSS
VL: DIVMTQSPLSLPVTPGEPASISCRSSQSLLHSNGFNYFDWYLQKPGQSPQLLIFLVSNRASGVPDRFSGSGSGTDFTLKISRVEAEDVGIYYCMQALQTPLTFGGGTKVEIK

Tests used:
细胞表面上表达的人ICOS [1] = target: T1, 细胞表面上表达的人ICOS; assay: receptor occupancy on patients' CD4 memory T cells, chip cytometry
人ICOS (HTRF测定) = target: T2, 人ICOS (HTRF测定); assay: HTRF binding assay, HEK supernatant with human IgG1 antibody
小鼠ICOS (HTRF测定) = target: T3, 小鼠ICOS (HTRF测定); assay: as above
细胞表面上表达的人ICOS [2] = target: T1, 细胞表面上表达的人ICOS; assay: flow cytometry on CHO-S cells expressing ICOS, purified IgG1
CHO-S细胞表面上表达的小鼠ICOS [3] = target: T4, CHO-S细胞表面上表达的小鼠ICOS; assay: as above
细胞表面上表达的人ICOS [4] = target: T1, 细胞表面上表达的人ICOS; assay: Mirrorball assay on CHO-S cells expressing ICOS; total binding defined by reference antibody, non-specific by hybrid control hIgG1
CHO-S细胞表面上表达的小鼠ICOS [5] = target: T4, CHO-S细胞表面上表达的小鼠ICOS; assay: as above

Binder | binding result (细胞表面上表达的人ICOS [1]) | 作用 (% effect, 等式1) (人ICOS (HTRF测定)) | 作用 (% effect, 等式1) (小鼠ICOS (HTRF测定)) | fold over negative control (几何平均值) (细胞表面上表达的人ICOS [2]) | fold over negative control (几何平均值) (CHO-S细胞表面上表达的小鼠ICOS [3]) | 作用 (% effect) (细胞表面上表达的人ICOS [4]) | 作用 (% effect) (CHO-S细胞表面上表达的小鼠ICOS [5])
B1 | binds |  |  |  |  |  | 
B2 |  | > 5% | > 5% | > 10 倍 | > 10 倍 | > 1% | > 1%
B3 |  | > 5% | > 5% | > 10 倍 | > 10 倍 | > 1% | > 1%
